Results reported in the DeepSol protein solubility set.

Experiment: soluble on expression in E. coli; label from the status in PepcDB or PDB records

Sequence | soluble on expression in E. coli
MSTFRLITGGIGTGKTLWTVEQLFKLKNLTPDRLVYTDITGIKHTGVTVVPPDFDWRNVEDNSLIIFDEVQYKELFSRHNSKRDKQILDLTTMRKRGIEIWCITQRARFLNQDVLGLVNEHIHLEKTGDKTARVYIWHEAETNITKTKKMFPFEKYVWQHPTDLYGFYESIKPDA | not soluble
MSTGSVDSQQSGGTLDAASKNIDHVIDQARHRHHQHRSKFKEAIDYLDQIFEDLKKECDPDDKNNNDENNKPFDPPPTFVAVKKKPTPLATSSASTTAPAAKIASASDSKKPASSSSTISVKPTVRQKTSETSKSKPLQQAPPSPVEVVIPVRKLSQGATNNQAEPTVAETIVLAKKTDKMDFTRRWLQDDLKSLAHLPPANIAPNASYYQDFDEHSLGSCSAEVAAFNTTKEKKNGSKASRKVSDSSDMIRPRPFRPQPVYPMVDGFNGPSAFEPFSSHTLPRVASNDQIPSEMKRSGSQDPYNTLRSMRSEGDGFDSARPSPSAFQQVSPFHRGSSMRSSLRSLPDHSPVRQKNSSYEVAAKDPVLSIDQLVAELELNTENTFSPADKRRSFPTSFGRPQAHQAQQHHAPSDYEKPNRFRAETRHAPTRGRAQNFVAPVAEPMTSKAPIYSQAVRPKQQQQQKSLDEVTSMLNRAVSQFGNEQRQAYQHPTAYKQLSQQSFGSVHSNNAFETINQEKINPSRVEAMHNMFERGTAPTSWKMQQKDSYEDRSQKMSPLQEVTYASLNSYSPPPPPPSHPLPQNGSHGMARNTSQNQISYHEYTPQPPTTQPPQRPPGSANSSQGGYYSSNSSGIGSNYPQNQQNQMYNNPRRSLIIDQQSISSRMPSVENDDDDGFYDNIGIYNDDRRYSRGSELETSASFRQLPPASNTSKHNRIGSFLRKIGGGSSRPPGSAASLMSLNKIANETIIKPGGLMKSNSLSNEPWKKVMLNGGASMPREANNNHKTGLGARLKNSLFGSRKRLDG | not soluble
MSTINFANREINFKIVYYGPGLSGKTTNLKWIYSKVPEGRKGEMVSLATEDERTLFFDFLPLDIGEVKGFKTRFHLYTVPGQVFYNASRKLILRGVDGIVFVADSAPNRLRANAESMRNMRENLAEYGLTLDDVPIVIQVNKRDLPDALPVEMVRAVVDPEGKFPVLEAVATEGKGVFETLKEVSRLVLARVAGGS | soluble
MSTINYDLSRIKALAFDVDGVLSSTTVPLHPSGEPMRTVNIKDGYAIQLAVKKGLHIAIITGGRTEAVRIRFAALGVKDLYMGSAVKIHDYRNFRDKYGLSDDEILYMGDDVPDIEVMRECGLPCCPKDAVPEVKSVAKYISYADGGRGCGRDVVEQVLKAHGKWMAEDAFGW | not soluble
MSTLGDLLAEHTVLPGSAVDHLHAVVGEWQLLADLSFADYLMWVRRDDGVLVCVAQCRPNTGPTVVHTDAVGTVVAANSMPLVAATFSGGVPGREGAVGQQNSCQHDGHSVEVSPVRFGDQVVAVLTRHQPELAARRRSGHLETAYRLCATDLLRMLAEGTFPDAGDVAMSRSSPRAGDGFIRLDVDGVVSYASPNALSAYHRMGLTTELEGVNLIDATRPLISDPFEAHEVDEHVQDLLAGDGKGMRMEVDAGGATVLLRTLPLVVAGRNVGAAILIRDVTEVKRRDRALISKDATIREIHHRVKNNLQTVAALLRLQARRTSNAEGREALIESVRRVSSIALVHDALSMSVDEQVNLDEVIDRILPIMNDVASVDRPIRINRVGDLGVLDSDRATALIMVITELVQNAIEHAFDPAAAEGSVTIRAERSARWLDVVVHDDGLGLPQGFSLEKSDSLGLQIVRTLVSAELDGSLGMRDARERGTDVVLRVPVGRRGRLML | not soluble
MSTNEIYNREEVLLLIEKLLGNNIEIPILLMLLLGLRMGEATGLRWSDVDLDNNLINVNQILVYSNGKISFKEPKTPKSKRALSAPKELIEKLKIEKLRQSKLKLQGILENKNNLVCLNTNLNPFLPSSLRKTFHNFTKKNNLKKIRIHDLRHTSATLLLLGGTNMKVVSERLGHTDIKITMNRYSHVLKEMDKEASDNLSELLEHHHHHH | not soluble
MSTPLMQRSLSPQEWQVFQRGDRWTGARLHQPLNLLLIGSKVLTSDLDHPPDPNLTYHALVNSVEGLSDSLLLVRFDPVQQRLVILSIPRDTLTFIPGRGDAKINEANALGGPALAAATVSELLGNVPIDRYLRINVQGIEKLIDALGGVTLDVPIAMRYRDESQHLYIDLQAGRHHLNGQQALQFLRFRYDALGDIGRVQRQQMFLRTLMEQTARPETLARTPHILSIIRENLDTNLTVEELMSLGQFLTRLPRSRVQFLLLPGNFNGTTEEVAVSYWLPNYQRIAWLTDQYFRDTPTADPRETGLPSPAQVRIAIQNTNLPQSLVMRLSEQLATAGYPHPLVAEPLPQPIPITRIIAQQGDLAAARQVQLLLGFGEVRVESTGVLASDVTIQLGDDARDRLQLRRTTSLLEHHHHHH | soluble
MSTPLSRVITNEIFRVPARRKPKPAVKPSDIPTLKDYTARLVDQKWLRLAARRKSA | not soluble
MSTPRIEHYTTDVHAHWEGIHPQDWAEVDLIGYENAMDKMYRTLCENPDAALVQVGHRSKLLNDHGSDYRFNGKFTSEQTKPERSHHDYNHFGKLMKWEGDRWYKYDFEVEVTDHTRSE | not soluble
MSTVKEAVDVEVPVHTAYNQWTQFEEFPHFMEGVEEVRQLDERHNHWTTQVSGVKREFDTEIVDQLPDERITWRTTTGDTNQKGTVRFQRLDDTHTRVELVMDVDPTGVAEKTGDMLGVIDRRVKGDMQRFKEYIEKRGGESGAWRGRIRPGELEHHHHHH | soluble
MSTVNVQIGLHELLNGSNAQIQLSVPQLVEKVLMRNEGKLTSTGAVSASTGKYTGRSPKDKFIVKEASVADKIAWGAVNQPISEEHFNKLYTKVLEYLKEKEELFVFKGFAGADRNYRLPIQVINEYAWHNLFVHQLFIRPTEEELTTHESEFTIVSAPNFKADPAVDGTNSEAFIMVSFEKRIVLIGGTEYAGEMKKSIFSIMNFLLPEQDILSMHCSANVGEEGDVALFFGLSGTGKTTLSADPNRKLIGDDEHGWSDNGVFNIEGGCYAKCVNLSHEKEPQIFDAITFGSVLENVIINDQTRIADYNDTTLTENTRAAYPMHAIDNIILPSVAGHPNTIIFLTADASGVLPPISKLSKEQAMYHFLSGYTSKLAGTERGVTSPQATFSTCFGSPFLPLDASRYAEMLGEKIEKHDAKVFLVNTGWTGGEYGVGKRMNLGYTRAMIQAALNGELAKTETAKHDIFGLEVPLHVPGVPDEVLMPEQTWADKAAYKAKAIELANEFKANFKKFDSVSEDIINLGGPIA | not soluble
MSVEPNHYLEITRSHVHQIYRELETSGKVITVDLVRKPYYDVDEDNKTLLQVFREHNEQSRKLIGKDFISKTVQRYETTTRYLEEFIKKEYQLSDIALNNLEANFISKFDAFLKIEKGCAQNSAITRLKNLKKIIRIALENDWIKKDPFAYYRFKLKETYPEFLTMDEIKIILAKEFTIKRVEQVRDVFIFCSYTGLAFSDVKDLSPEHLLKDNKGELWIKIFLSFHSSVFSSKNLHRLNTSLAKSMIQIKF | not soluble
MSVEPTSVDPSPDKSAPANASGRADASARPSTGESARPSGGETPEVLRPHAEVTFAAELAALAAQDDRPRPVRWRLSPWAVATYLLGGTLPDGTVITPKYVGPRRIVEVAVTTLATDRALLLLGVPGTAKTWVSEHLAAAVSGDSTLLVQGTAGTPEEAIRYGWNYAQLLAHGPSRDALVPSPVMRAMADGMTARVEELTRVPADVQDTLITILSEKTLPIPELGQEVQAVRGFNLIATANDRDRGVNELSSALRRRFNTVVLPLPESADAEVDIVSRRVDQIGRSLDLPAVPDGVDEIRRVVTVFRELRDGVTTDGRTKLKSPSGTLSTAEAISVVTNGLALAAHFGDGVLRASDVAAGILGAVVRDPAADRVIWQEYLEAVVRERDGWMDFYRACREVSALEHHHHHH | soluble
MSVGQTLAEKILSHKVGRPVRAGELVVVEVDQVMVVDSIAGSFFKRLEYLEATPRYPERVSIVIDHVAPAANLEVAKAQKEIREWGKRHGIRVFDVGRGVCHQVLIEEGLAQPGWVVVGSDSHSTTYGAVGAFGTGMGATDIALAAASGRTWLRVPESVKVVFRGRLPKGVTAKDAALEMVRLLTAEGATYMAVEIHLLDGAEALTRGERMTLANLTVEAGAKAGLVVPSGEILEMYRVPDWLYPDPDARYAKEVEIDLSALTPRVSVPFYVDNVHEVAQVKGKRVDQVFIGTCTNGRIEDLRAAAEVLKGRKVAPWVRLLVVPASSQVLEEAARDGTLLTLLEAGATIGTPGCGPCMGRHMGVLAPGEVCVSTSNRNFRGRMGAPDAEIYLASPRVAAASAVAGYLTTPEELEEEEVHA | soluble
